The source of these data is paper PMC10672168, “Invasive Staphylococcus epidermidis uses a unique processive wall teichoic acid glycosyltransferase to evade immune recognition” (Science Advances, 2023).

The target of test [1] is TarM(Se), WTA glycosyltransferase TarM of S. epidermidis, wild type (S. epidermidis). In words: SEC; Superdex 200 increase 10/30, calibrated column; buffer D: 20 mM triethanolamine pH 7.8 (TarM(Se)_(G117R)) or 8.5 (TarM(Se) and mutant proteins), 250 mM LiCl, 10 mM β-mercaptoethanol, 5% glycerol. A general note: SEC sorts molecules by how far they enter the pores of the column.

For test [2] the target is unchanged. The test can be described thus: crystal structure.
The target in test [3] is TarM(Se) N203A mutant (S. epidermidis). In words: SEC; Superdex 200 increase 10/30, calibrated column; buffer D: 20 mM triethanolamine pH 7.8 (TarM(Se)_(G117R)) or 8.5 (TarM(Se) and mutant proteins), 250 mM LiCl, 10 mM β-mercaptoethanol, 5% glycerol.
Another test has as its system TarM(Se). The note with it: 30 mM ligand; acceptor site; only two RboP units and one phosphate ordered; monomeric mutant.
Test [4] has as its target TarM(Se) N9A mutant (S. epidermidis). In words: SEC; Superdex 200 increase 10/30, calibrated column; buffer D: 20 mM triethanolamine pH 7.8 (TarM(Se)_(G117R)) or 8.5 (TarM(Se) and mutant proteins), 250 mM LiCl, 10 mM β-mercaptoethanol, 5% glycerol.
The target in test [5] is TarM(Se) Q265A mutant (S. epidermidis). Described as above.
In test [6] the target is TarM(Se) K233A mutant (S. epidermidis). The test is described as above.
Test [7] concerns the target TarM(Se) E10A mutant (S. epidermidis). The description is as above.
The target of test [8] is TarM(Se) N255A mutant (S. epidermidis). The test is described as above.

“TarM(Se), WTA glycosyltransferase TarM of S. epidermidis, wild type (enzyme)”: the stoichiometry N in test [1] and in test [2] was 3 in each case.

On to TarM(Se) N203A mutant (enzyme), for which the stoichiometry N – broadly, a count of units in the complex or per binding partner – in [3] is 3. As to `NCCCCCCOP(=O)(O)OC[C@@H](O)[C@@H](O)[C@@H](O)COP(=O)(O)OC[C@@H](O)[C@@H](O)[C@@H](O)COP(=O)(O)OC[C@@H](O)[C@@H](O)[C@@H](O)COP(=O)(O)OC[C@@H](O)[C@@H](O)[C@@H](O)CO` [4RboP-(CH2)6NH2], the “X-ray crystal structure (cocrystallization)” value in the test with TarM(Se) is on record as “The 4RboP-(CH2)6NH2 compound was introduced into the TarM(Se)G117R crystals through cocrystallization”. The compound TarM(Se) N9A mutant (enzyme) gave a stoichiometry N in test [4] of 3. In test [5], TarM(Se) Q265A mutant (enzyme) displayed a stoichiometry N of 3. Compound TarM(Se) K233A mutant (enzyme) registered a stoichiometry N in test [6] of 3. As for TarM(Se) E10A mutant (enzyme), the stoichiometry N in test [7] came to 3.

Take TarM(Se) N255A mutant (enzyme): the stoichiometry N in test [8] was 3.
